Assay results as given in patent US20200179497A1.
Positions count from the first letter of the chain named.

B1: pCART202 (enzyme)
chain: MDDYQRNATEAYAKEVPHQITSVWTKGVTPLTPEQFTQGEDVIHAPYLAHQGWYDITKAFDGKDNLLCGAATAGNMLHWWFDQNKTEIEAYLSKHPEKQKIIFNNQELFDLKAAIDTKDSQTNSQLFNYFRDKAFPNLSARQLGVMPDLVLDMFINGYYLNVFKTQSTDVNRPYQDKDKRGGIFDAVFTRGDQTTLLTARHDLKNKGLNDISTIIKQELTEGRALALSHTYANVSISHVINLWGADFNAEGNLEAIYVTDSDANASIGMKKYFVGINAHGHVAISAKKIEGENIGAQVLGLFTLSSGKDIWQKLSGGGHHHHHH
B2: pCART204 (enzyme)
chain: MDDYQRNATEAYAKEVPHQITSVWTKGVTPPEQFRYNNEDVIHAPYLAHQGWYDITKAFDGKDNLLCGAATAGNMLHWWFDQNKTEIEAYLSKHPEKQKIIFNNQELFDLKAAIDTKDSQTNSQLFNYFRDKAFPNLSARQLGVMPDLVLDMFINGYYLNVFKTQSTDVNRPYQDKDKRGGIFDAVFTRGDQTTLLTARHDLKNKGLNDISTIIKQELTEGRALALSHTYANVSISHVINLWGADFNAEGNLEAIYVTDSDANASIGMKKYFVGINAHGHVAISAKKIEGENIGAQVLGLFTLSSGKDIWQKLSGGGHHHHHH
B3: pCART229 (enzyme)
chain: MDDYQRNATEAYAKEVPHQITSVWTKGVTPPEQFTQGEDVIHAPYLAHQGWYDITKAFDGKDNLLCGAATAGNMLHWWFDQNKTEIEAYLSKHPEKQKIIFRNQELFDLKAAIDTKDSQTNSQLFNYFRDKAFPNLSARQLGVMPDLVLDMFINGYYLNVFKTQSTDVNRPYQDKDKRGGIFDAVFTRGNQTTLLTARHDLKNKGLNDISTIIKQELTEGRALALSHTYANVSISHVINLWGADFNAEGNLEAIYVTDSDANASIGMKKYFVGINAHGHVAISAKKIEGENIGAQVLGLFTLSSGKDIWQKLSGGGHHHHHH
B4: pCART203 (enzyme)
chain: B3 chain with R102N, N190D
B5: pCART208 (enzyme)
chain: B3 chain with F101I, N190D
B6: pCART210 (enzyme)
chain: B3 chain with H48N, A111E, D114R, N126E, N135Y, N169K, Q215E, E219K, A276K, S313N

Target: IVIg (Octagam)
Test: cell-based or functional assay

Binder | enzyme concentration giving an intense scIgG band on SDS-PAGE | enzyme concentration giving mainly scIgG on SDS-PAGE | also measured
B1 | 0.94 ng/mL |  | 
B2 | 0.94 ng/mL |  | 
B3 |  |  | Conc. of enzyme, 1st IgG heavy chain, IgG to scIgG (gel): 1900 ng/mL; Conc. of enzyme, 2nd IgG heavy chain, scIgG to F(ab')2 (gel): 7500 ng/mL
B4 | 0.94 ng/mL | 0.9 ng/mL | 
B5 |  | 0.5 ng/mL | enzyme concentration giving a dominating F(ab')2 band on SDS-PAGE: 1.9 ng/mL
B6 |  | 0.9 ng/mL | 
